From US6365372 (SAINT LOUIS UNIVERSITY, dated 2002)

How the values were obtained:
Gal-CBP227-460 chimera = Gal-CBP227-460 chimera (yeast, UniProt P04386 1-147; P45481 227-460); assay: cell-based or functional assay
Gal-CBP280-460 chimera [1] = target: T1, Gal-CBP280-460 chimera (yeast, UniProt P04386 1-147; P45481 280-460); assay: cell-based or functional assay
Gal-CBP280-460 chimera [2] = target: T1, Gal-CBP280-460 chimera; assay: mammalian two-hybrid assay in HeLa cells

B1: VP16-clone 11 chimera (other)
chain: MTAPPTDVSLGDELHLDGEDVAMAHADALDDFDLDMLGDGDSPGPGFTPHDSAPYGALDMADFEFEQMFTDALGIDEYGGGTSLASASPVPAPTPVLAPSSTQTMLPAPVPSPLPSPASTQTLALAPALAPTLGGSSPSQTLSLGTGNPQGPFPTQTLSLTPASSLVPTPAQTLSLAPGPPLGPTQTLSLAPAPPLAPASPVGPAPAHTLTLAPASSSASLLAPASVQTLTLSPAPVPTLGPAAAQTLALAPASTQSPASQASSLVVSASGAAPLPVTMVSRLPVSKDEPDTLTLRSGPPSPPSTATSFGGPRPRRQPPPPPRSPFYLDSLEEKRKRQRSERLERIFQLSEAHGALAPVYGTEVLDFCTLPQPVASPIGPRSPGPSHPTFWTYTEAAHRA
ability of the Gal-CBP227-460 chimera to activate transcription of the reporter gene pGal-CAT (Gal-CBP227-460 chimera): ~1.5 fold | transcription of the reporter gene pGal-CAT (relative CAT activity) (Gal-CBP280-460 chimera [1]): ~20 fold

B2: VP16 activation domain (other)
chain: MTAPPTDVSLGDELHLDGEDVAMAHADALDDFDLDMLGDGDSPGPGFTPHDSAPYGALDMADFEFEQMFTDALGIDEYGG
notes: range 412-491; Control without the clone 11 part; also called pVP16
binding result (Gal-CBP280-460 chimera [2]): no binding
